In patent US20220348665A1 (ABL BIO, published 2022):
Where a chain is given by its changes, count along the chain named. “And” between values parts separate entries of the source, which are not always exact repeats. Equal values may be shown once. Read-outs that look alike come from different tables or passages of the source. Each block holds one binder with its values, some of them ahead of it.

Experiments:
[1] = target: T1, alpha-synuclein aggregates (human alpha-synuclein, fibril) (human, UniProt P37840 1-140); experiment: sandwich ELISA: antibody coated at 0.04 to 400 nM, 2000 ng/ml alpha-synuclein aggregates, biotin-conjugated antibody and HRP-streptavidin; value is C of the 4-P fit table under the plot, which the text calls EC50
[2] = target: T1, alpha-synuclein aggregates (human …); experiment: SPR (BIAcore T200), antibody captured on protein A chip, 1:1 model
[3] = target: T1, alpha-synuclein aggregates (human …); experiment: SPR (BIAcore T200), antibody captured on Protein A chip, alpha-synuclein fibril as analyte (file ProteinA-Fibril-main-5th), 25 C, fit 1:1 Binding
[4] = target: T1, alpha-synuclein aggregates (human …); experiment: sandwich ELISA, antibody coated, aggregates 2000 ng/ml
[5] = target: T1, alpha-synuclein aggregates (human …); experiment: ELISA on alpha-synuclein aggregates coated at 1 ug/ml, antibody 5-fold dilutions from 400 nM, anti-human Fc-HRP; value is C of the 4-P fit table under the plot
[6] = target: T1, alpha-synuclein aggregates (human …); experiment: SPR (BIAcore T200), antibody captured on Protein A chip, alpha-synuclein fibril as analyte (file ProteinA-Fibril-main-5th), 25 C, fit 1:1 Binding; remark: listed apart in the source
[7] = target: T2, mouse IGF1R on bEND.3 mouse brain endothelial cells (mouse, UniProt Q60751 31-1373); experiment: FACS on bEND.3 mouse brain endothelial cells
T2 construct: whole, on cells; also called IGF1R expressed on the surface of brain endothelial cells

[8] = target: T3, human IGF1R extracellular domain, recombinant, His tag at C-terminus (human, UniProt P08069 31-932); experiment: ELISA on coated IGF1R, antibody 5-fold dilutions from 400 nM, anti-human Fc-HRP; C of the 4-P fit (D 2.68), extrapolated: curve at baseline up to about 3 nM, about 0.8 at 80 nM and about 1.75 at 400 nM, no plateau; the text says this monospecific antibody did not bind
T3 construct: also called human IGF1R ECD; ECD of IGF1R

[9] = target: T3, human IGF1R extracellular domain, …; experiment: ELISA on coated IGF1R, antibody 5-fold dilutions from 400 nM, anti-human Fc-HRP; C of the 4-P fit (D 0.945, R^2 0.985), extrapolated: curve at baseline up to 16 nM, about 0.2 at 80 nM and about 0.75 at 400 nM, no plateau; the text says this monospecific antibody did not bind
[10] = target: T1, alpha-synuclein aggregates (human …); experiment: ELISA on coated alpha-synuclein aggregates, antibody 5-fold dilutions from 400 nM, anti-human Fc-HRP; value is C of the 4-P fit table under the plot
[11] = target: T1, alpha-synuclein aggregates (human …); experiment: SPR (BIAcore T200), antibody captured on Protein A chip, alpha-synuclein fibril as analyte (file ProteinA-Fibril-main-5th), 25 C, fit 1:1 Binding; remark: listed apart in the source
[12] = target: T4, human IGF1R, endogenous, on the surface of breast cancer cell lines (MCF-7, JIMT-1, BT474) (human, UniProt P08069 31-1367); experiment: FACS on MCF-7 cells, antibody 10 ug/mL (2nd Ab only 2.86, not treated 1.88)
T4 construct: also called endogenous IGF1R on the cell surface; MCF-7 cell line

[13] = target: T3, human IGF1R extracellular domain, …; experiment: ELISA, human IGF1R coated, anti-human Fab HRP
[14] = target: T3, human IGF1R extracellular domain, …; experiment: SPR (Biacore T200), His-tagged human IGF1R ECD captured by anti-His antibody on CM4 chip, 1564 IgG as analyte, 25 C, fit Bivalent Analyte; lower panel
[15] = target: T3, human IGF1R extracellular domain, …; experiment: SPR (Biacore T200), His-tagged human IGF1R ECD captured by anti-His antibody on CM4 chip, 1564 IgG as analyte, 25 C, fit Bivalent Analyte; upper panel
[16] = target: T3, human IGF1R extracellular domain, …; experiment: SPR (Biacore T200), His-tagged human IGF1R ECD captured by anti-his antibody on CM4 chip, bivalent model
[17] = target: T5, monkey IGF1R, recombinant, His tag at C-terminus (monkey); experiment: ELISA, monkey IGF1R coated, anti-human Fab HRP
T5 construct: also called Monkey IGF1R (National Research Council Canada)

T2 sequence (Q60751 31-1373): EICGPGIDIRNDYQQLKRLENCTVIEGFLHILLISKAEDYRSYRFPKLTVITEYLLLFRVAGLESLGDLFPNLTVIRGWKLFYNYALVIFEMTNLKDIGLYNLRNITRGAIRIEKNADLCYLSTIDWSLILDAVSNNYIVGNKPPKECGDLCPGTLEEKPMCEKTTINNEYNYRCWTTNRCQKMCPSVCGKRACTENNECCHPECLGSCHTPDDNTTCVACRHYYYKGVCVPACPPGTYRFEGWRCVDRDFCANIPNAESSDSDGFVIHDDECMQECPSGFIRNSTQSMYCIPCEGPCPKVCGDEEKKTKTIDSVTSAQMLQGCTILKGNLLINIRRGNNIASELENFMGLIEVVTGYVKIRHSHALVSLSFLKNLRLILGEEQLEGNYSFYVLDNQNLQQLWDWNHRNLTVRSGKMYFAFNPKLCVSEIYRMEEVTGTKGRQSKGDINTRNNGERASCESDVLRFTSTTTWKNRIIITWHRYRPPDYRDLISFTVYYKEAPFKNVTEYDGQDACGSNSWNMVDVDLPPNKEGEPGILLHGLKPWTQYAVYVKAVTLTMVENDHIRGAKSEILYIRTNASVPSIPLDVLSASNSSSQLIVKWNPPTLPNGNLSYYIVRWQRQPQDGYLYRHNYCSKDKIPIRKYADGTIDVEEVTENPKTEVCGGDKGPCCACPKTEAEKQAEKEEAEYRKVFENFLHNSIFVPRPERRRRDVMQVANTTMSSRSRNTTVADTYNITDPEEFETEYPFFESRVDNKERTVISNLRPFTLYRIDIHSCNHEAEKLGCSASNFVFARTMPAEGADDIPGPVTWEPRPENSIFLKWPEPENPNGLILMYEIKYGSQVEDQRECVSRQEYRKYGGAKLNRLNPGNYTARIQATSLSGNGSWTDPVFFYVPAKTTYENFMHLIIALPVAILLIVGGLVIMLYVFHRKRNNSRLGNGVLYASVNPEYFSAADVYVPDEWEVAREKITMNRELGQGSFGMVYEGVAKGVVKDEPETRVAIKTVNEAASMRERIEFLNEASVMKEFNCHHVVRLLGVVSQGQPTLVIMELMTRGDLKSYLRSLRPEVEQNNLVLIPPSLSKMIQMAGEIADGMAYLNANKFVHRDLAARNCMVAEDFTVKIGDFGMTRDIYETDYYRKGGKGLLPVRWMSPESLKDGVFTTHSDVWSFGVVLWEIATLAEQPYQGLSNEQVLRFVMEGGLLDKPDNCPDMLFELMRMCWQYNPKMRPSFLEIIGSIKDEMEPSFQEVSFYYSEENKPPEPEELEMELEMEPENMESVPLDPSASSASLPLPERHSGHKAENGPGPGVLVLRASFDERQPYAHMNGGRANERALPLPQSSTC

B1: hu11F11(ver.4) (antibody, human IgG1, V domains shown)
VH: EVQLVESGGGLVQPGGSLRLSCATSGFTFSDFYMEWVRQPPGKRLEWIAASRNKANDYTTEYSASVKGRFTVSRDTSKSSLYLQMNSLRAEDTAIYYCARDAHGKPFAYWGQGTTVTVSS
VL: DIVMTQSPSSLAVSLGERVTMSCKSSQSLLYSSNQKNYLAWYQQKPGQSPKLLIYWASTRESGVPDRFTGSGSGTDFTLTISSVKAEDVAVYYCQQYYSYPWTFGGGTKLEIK
notes: Human IgG1 backbone
EC50 [1]: 12.9 nM
Kd [2]: 0.0204 nM
koff [3]: 0.000291 s⁻¹
kon [3]: 1.07e+06 M⁻¹ s⁻¹

B2: Ch11F11 (chimeric 11F11 antibody, human IgG1) (antibody, V domains shown)
VH: B1 VH with V5Q, T71I, K78Q, S80I, S87A, T115L, S120A
VL: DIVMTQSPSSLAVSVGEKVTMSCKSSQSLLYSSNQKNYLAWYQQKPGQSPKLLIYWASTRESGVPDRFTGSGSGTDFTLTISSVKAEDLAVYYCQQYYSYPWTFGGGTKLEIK
notes: Chimeric human IgG1
EC50 [4]: 12.5 nM
EC50 [5]: 33.8 nM
koff [6]: 0.000563 s⁻¹
kon [6]: 609000 M⁻¹ s⁻¹
Kd [2]: 0.0247 nM
binding result [7]: no binding
EC50 [8]: 201 nM
EC50 [9]: 196 nM
EC50 [10]: 1.27 nM

B6: 1564 IgG (anti-IGF1R clone 1564, full IgG1 form) (antibody, V domains shown)
VH: EVQLLESGGGLVQPGGSLRLSCAASGFTFSSYDMSWVRQAPGKGLEWVSAISYDNGNTYYADSVKGRFTISRDNSKNTLYLQMNSLRAEDTAVYYCAKGVLTTLMNWFDYWGQGTLVTVSS
VL: QSVLTQPPSASGTPGQRVTISCTGSSSNIGSNDVSWYQQLPGTAPKLLIYANSNRPSGVPDRFSGSKSGTSASLAISGLRSEDEADYYCGAWDDSLNGYVFGGGTKLTVL
EC50 [13]: 0.0823 nM
koff [14]: 2.53e-06 s⁻¹
koff [15]: 2.41e-06 s⁻¹
kon [15]: 902 M⁻¹ s⁻¹
Kd [16]: 2.53 nM

B7: ch11F11-1564 (bivalent bispecific antibody: chimeric 11F11 IgG with 1564 scFv on each heavy chain) (bispecific antibody, not shown: a dimerising Fc or GST)
heavy (part 1 of 2): B1 VH with V5Q, T71I, K78Q, S80I, S87A, T115L, S120A
heavy (part 2 of 2): GGGGSGGGGSGGGGSQSVLTQPPSASGTPGQRVTISCTGSSSNIGSNDVSWYQQLPGTAPKLLIYANSNRPSGVSDRFSGSKSGTSASLAISGLRSEDEADYYCGAWDDSLNGYVFGCGTKLTVLGGGGSGGGGSGGGGSGGGGSEVQLLESGGGLVQPGGSLRLSCAASGFTFSSYDMSWVRQAPGKCLEWVSAISYDNGNTYYADSVKGRFTISRDNSKNTLYLQMNSLRAEDTAVYYCAKGVLTTLMNWFDYWGQGTLVTVSS
light: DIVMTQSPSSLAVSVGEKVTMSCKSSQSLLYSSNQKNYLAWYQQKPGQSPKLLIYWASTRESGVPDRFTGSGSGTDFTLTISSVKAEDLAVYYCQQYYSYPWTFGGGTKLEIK
EC50 [5]: 22.7 nM
EC50 [17]: 2.48 nM and 2.21 nM
EC50 [10]: 1.5 nM

Results, then the binder that gave them:

EC50 [1]: 11.5 nM
koff [6]: 5.36e-05 s⁻¹
kon [6]: 845000 M⁻¹ s⁻¹
B3: hu11F11(ver.1) (antibody, human IgG1, V domains shown)
VH: B1 VH with V72I, T76D
VL: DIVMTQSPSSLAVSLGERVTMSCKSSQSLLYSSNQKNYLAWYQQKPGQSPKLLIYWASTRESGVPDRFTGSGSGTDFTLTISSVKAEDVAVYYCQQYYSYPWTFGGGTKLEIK
notes: Human IgG1 backbone

EC50 [1]: 13.4 nM
koff [11]: 0.000266 s⁻¹
kon [11]: 1.07e+06 M⁻¹ s⁻¹
Kd [2]: 0.0316 nM
B4: hu11F11(ver.3) (antibody, human IgG1, V domains shown)
VH: B1 VH with V72I
VL: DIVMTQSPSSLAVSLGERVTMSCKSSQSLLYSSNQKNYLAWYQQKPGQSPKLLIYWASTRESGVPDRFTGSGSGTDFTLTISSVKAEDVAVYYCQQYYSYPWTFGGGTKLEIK
notes: Human IgG1 backbone

EC50 [1]: 15.1 nM
koff [11]: 0.000173 s⁻¹
kon [11]: 1.19e+06 M⁻¹ s⁻¹
GeoMean, Internalization at 37° C. [12]: 3.18
Kd [2]: 0.0596 nM
B5: hu11F11(ver.2) (antibody, human IgG1, kappa, V domains shown)
VH: B1 VH with T76D
VL: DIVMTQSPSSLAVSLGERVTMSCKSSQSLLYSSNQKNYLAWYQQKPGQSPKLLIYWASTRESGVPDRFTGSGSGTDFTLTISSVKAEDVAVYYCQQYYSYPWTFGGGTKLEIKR
notes: also called hu11F11 WT; humanized antibody 11F11 (ver. 2)
